# Experimental data published in PMC5760710, “The evolution of substrate discrimination in macrolide antibiotic resistance enzymes” (Nature Communications, 2018).
# What was measured:
# [1] = test system: CC[C@H]1OC(=O)C[C@@H](O)[C@H](C)[C@@H](O[C@@H]2O[C@H](C)[C@@H](O[C@H]3C[C@@](C)(O)[C@@H](O)[C@H](C)O3)[C@H](N(C)C)[C@H]2O)[C@@H](CC=O)C[C@@H](C)C(=O)/C=C/C(C)=C/[C@@H]1CO[C@@H]1O[C@H](C)[C@@H](O)[C@@H](OC)[C@H]1OC; experiment: purified protein, by the assay type; design: continuous PK/LDH-coupled NADH kinase assay, steady-state Km, macrolide or GTP varied; settings: pH 7.5
# Method: (§1) Steady-state kinetics for Mphs were measured using the continuous PK/LDH-coupled assay[27],[32],[36],[71]. Reactions were performed in 96-well plates (Nunc, Thermo Scientific) using Spectramax Plus384 (Molecular Devices) in duplicate. Individual reactions were 100 µL and contained 50 mM HEPES pH 7.5, 40 mM KCl, 10 mM MgCl2, 0.2 mM NADH, 3.5 mM PEP, and 4.8 U PK/LDH (pyruvate kinase/lactate dehydrogenase). […] For determining the Km for macrolides, GTP was maintained at 200 µM and macrolides were varied between 0.49 µM and 1000 µM. Enzyme efficiency varied considerably between substrates, and therefore some enzymes were used at different concentrations depending on the substrate in order to produce a linear range suitable for Km determination. These concentrations were as follows; MphB 140 nM (most substrates), MphB 36 nM (josamycin), MphI 45 nM (descladinose macrolides), MphI 1.44 µM (C3 cladinose macrolides), Azi_1.1 90 nM (all substrates), Ery_1 (all substrates), MphK 680 nM (all substrates), MphIS111R/T166E/P211L 90 nM (descladinose macrolides), MphIS111R/T166E/P211L 1.43 µM (C3 cladinose macrolides), MphIM40A/S111R/T166E 22 nM (descladinose macrolides), MphIM40A/S111R/T166E 430 nM (C3 cladinose macrolides), MphIS111R/T166E 22 nM (descladinose macrolides), MphIS111R/T166E 1.43 µM (C3 cladinose macrolides). Enzyme kinetics experiments were performed at least two independent times.
# [2] = test system: CC[C@H]1OC(=O)[C@H](C)[C@@H](O[C@H]2C[C@@](C)(OC)[C@@H](O)[C@H](C)O2)[C@H](C)[C@@H](O[C@@H]2O[C@H](C)C[C@H](N(C)C)[C@H]2O)[C@](C)(O)C[C@@H](C)/C(=N\OCOCCOC)[C@H](C)[C@@H](O)[C@]1(C)O; experiment: purified protein, by the assay type; design: continuous PK/LDH-coupled NADH kinase assay, steady-state Km, macrolide or GTP varied; settings: pH 7.5
# Method: as §1
# [3] = test system: Nc1nc2c(ncn2[C@@H]2O[C@H](COP(=O)(O)OP(=O)(O)OP(=O)(O)O)[C@@H](O)[C@H]2O)c(=O)[nH]1; experiment: PK/LDH-coupled continuous assay; assay type: biochemical, Bacillus subtilis; settings: 100 uM telithromycin, 10 mM MgCl2, 40 mM KCl, pH 7.5
# [4] = test system: CC[C@H]1OC(=O)[C@H](C)C(=O)[C@H](C)[C@@H](O[C@@H]2O[C@H](C)C[C@H](N(C)C)[C@H]2O)[C@](C)(OC)C[C@@H](C)C(=O)[C@H](C)[C@H]2N(CCCCn3cnc(-c4cccnc4)c3)C(=O)O[C@]12C; experiment: PK/LDH-coupled continuous assay; assay type: biochemical, Bacillus subtilis; settings: 200 uM GTP, 10 mM MgCl2, 40 mM KCl, pH 7.5
# [5] = test system: CC[C@H]1OC(=O)[C@H](C)[C@@H](O[C@H]2C[C@@](C)(OC)[C@@H](O)[C@H](C)O2)[C@H](C)[C@@H](O[C@@H]2O[C@H](C)C[C@H](N(C)C)[C@H]2O)[C@](C)(O)C[C@@H](C)CN(C)[C@H](C)[C@@H](O)[C@]1(C)O; experiment: PK/LDH-coupled continuous assay; assay type: biochemical, Bacillus subtilis; settings: 200 uM GTP, 10 mM MgCl2, 40 mM KCl, pH 7.5
# [6] = molecular target: T1, MphB (Escherichia coli, UniProt A0A0H3EUF3); experiment: biochemical; design: PK/LDH-coupled continuous assay of macrolide phosphorylation; steady-state kinetics, NADH absorbance
# T1 construct: codon-optimized gene, N-terminal His tag in pET28a, expressed in E. coli BL21(DE3), Ni-NTA purified
# Method: as §1, with “times. Steady-state kinetics of Mphs” for “times.”
# [7] = test system: T2, MphI; experiment: PK/LDH-coupled continuous assay; assay type: biochemical, Paenibacillus sp. LC231; settings: 10 mM MgCl2, 40 mM KCl, pH 7.5
# T2 construct: full-length, His-tagged in pET22b, expressed in E. coli BL21(DE3), Ni-NTA purified; primers span nt 1-927
# [8] = test system: T3, E. coli BW25113 ΔbamBΔtolC; experiment: microbe, parasite or virus in culture; settings: Escherichia coli, BW25113, 24 h; empty vector
# T3 construct: BW25113 ΔbamBΔtolC empty vector pGDP4
# Method: mphB was codon optimized, synthetized as a gBlock (IDT) and cloned into pET28a with an N-terminal histidine tag. The codon optimized mphB sequence is in Supplementary Table 17. mphI was previously cloned into pET22b[36]. pGDP4 is a derivative of pET28a with the multiple-cloning site under the control of the constitutive lac promoter. mphI was subcloned into pGDP4 using the XbaI and XhoI restriction sites. E. coli was routinely cultured on LB-Lennox (Bioshop) at 37 °C overnight, and either 100 µg mL^−1 ampicillin or 50 µg mL^−1 kanamycin was used for plasmid selection. E. coli TOP10 (Invitrogen) was used for routine cloning experiments and susceptibility testing of mphs cloned into pGDP4. E. coli BL21(DE3) (Stratagene, USA)was used for protein overexpression experiments. E. coli BW25113 ΔbamBΔtolC is an antibiotic hypersensitive, and was used for susceptibility testing of Mphs cloning into pGDP4. Antibiotic susceptibility testing was performed according to the Clinical and Laboratory Standards Institute guidelines[74] for determining minimal inhibitory concentration (MIC) in 96-well plates (Sarstedt, Germany) in duplicate. MIC values were reproducible. A saline suspension of OD600 of 0.1 was made from 2–3 colonies of a fresh overnight, and diluted 1:200 into Mueller-Hinton Broth (BD Biosciences). […] Susceptibility assays were performed at least two independent times.
# [9] = molecular target: T4, MphH (Brachybacterium faecium, UniProt C7MEP1); experiment: X-ray crystal structure; assay type: binding
# T4 construct: pMCSG53, N-terminal His6 tag and TEV site, crystallized
# [10] = test system: Nc1nc2c(ncn2[C@@H]2O[C@H](COP(=O)(O)OP(=O)(O)OP(=O)(O)O)[C@@H](O)[C@H]2O)c(=O)[nH]1; experiment: PK/LDH-coupled continuous assay; assay type: biochemical, Escherichia coli; settings: 100 uM telithromycin, 10 mM MgCl2, 40 mM KCl, pH 7.5
# [11] = test system: CC[C@H]1OC(=O)[C@H](C)[C@@H](O[C@H]2C[C@@](C)(OC)[C@@H](O)[C@H](C)O2)[C@H](C)[C@@H](O[C@@H]2O[C@H](C)C[C@H](N(C)C)[C@H]2O)[C@](C)(O)C[C@@H](C)C(=O)[C@H](C)[C@@H](O)[C@]1(C)O; experiment: PK/LDH-coupled continuous assay; assay type: biochemical, Escherichia coli; settings: 200 uM GTP, 10 mM MgCl2, 40 mM KCl, pH 7.5
# [12] = test system: CC[C@H]1OC(=O)[C@H](C)C(=O)[C@H](C)[C@@H](O[C@@H]2O[C@H](C)C[C@H](N(C)C)[C@H]2O)[C@](C)(OC)C[C@@H](C)C(=O)[C@H](C)[C@H]2N(CCCCn3cnc(-c4cccnc4)c3)C(=O)O[C@]12C; experiment: PK/LDH-coupled continuous assay; assay type: biochemical, Escherichia coli; settings: 200 uM GTP, 10 mM MgCl2, 40 mM KCl, pH 7.5
# [13] = test system: CC[C@H]1OC(=O)[C@H](C)[C@@H](O[C@H]2C[C@@](C)(OC)[C@@H](O)[C@H](C)O2)[C@H](C)[C@@H](O[C@@H]2O[C@H](C)C[C@H](N(C)C)[C@H]2O)[C@](C)(O)C[C@@H](C)CN(C)[C@H](C)[C@@H](O)[C@]1(C)O; experiment: PK/LDH-coupled continuous assay; assay type: biochemical, Escherichia coli; settings: 200 uM GTP, 10 mM MgCl2, 40 mM KCl, pH 7.5
compound,measurement,setting,value
MphK (Bacillus subtilis subsp. subtilis str. 168),Km,[1],6.3 ± 2.4 µM
same,kcat,[1],0.0022 ± 0.0002 s⁻¹
same,kcat/Km,[1],350 M⁻¹ s⁻¹
same,Km,[2],100 ± 25 µM
same,kcat,[2],0.005 ± 0.0004 s⁻¹
same,kcat/Km,[2],49 M⁻¹ s⁻¹
same,Km,[3],17 ± 1 µM
same,kcat,[3],0.0491 ± 0.0004 s⁻¹
same,Km,[4],4.2 ± 0.45 µM
same,kcat,[4],0.056 ± 0.001 s⁻¹
same,Km,[5],940 ± 320 µM
same,kcat,[5],0.025 ± 0.005 s⁻¹
CC[C@H]1OC(=O)[C@H](C)[C@@H](O[C@H]2C[C@@](C)(OC)[C@@H](O)[C@H](C)O2)[C@H](C)[C@@H](O[C@@H]2O[C@H](C)C[C@H](N(C)C)[C@H]2O)[C@](C)(O)C[C@@H](C)/C(=N\OCOCCOC)[C@H](C)[C@@H](O)[C@]1(C)O [roxithromycin],Ki,[6],960 ± 510 µM
same,Km,[7]; 200 uM GTP,32 ± 4 µM
Nc1nc2c(ncn2[C@@H]2O[C@H](COP(=O)(O)OP(=O)(O)OP(=O)(O)O)[C@@H](O)[C@H]2O)c(=O)[nH]1 [GTP],Km,[7]; 100 uM telithromycin,10 ± 1 µM
CC[C@H]1OC(=O)[C@H](C)C(=O)[C@H](C)[C@@H](O[C@@H]2O[C@H](C)C[C@H](N(C)C)[C@H]2O)[C@](C)(OC)C[C@@H](C)C(=O)[C@H](C)[C@H]2N(CCCCn3cnc(-c4cccnc4)c3)C(=O)O[C@]12C [telithromycin],MIC,[8],0.125 µg/mL
same,Km,[7]; 200 uM GTP,3 ± 0.5 µM
CC[C@H]1OC(=O)[C@H](C)[C@@H](O[C@H]2C[C@@](C)(OC)[C@@H](O)[C@H](C)O2)[C@H](C)[C@@H](O[C@@H]2O[C@H](C)C[C@H](N(C)C)[C@H]2O)[C@](C)(OC)C[C@@H](C)C(=O)[C@H](C)[C@@H](O)[C@]1(C)O [Clarithromycin],MIC,[8],0.5 µg/mL
NC[C@H]1O[C@H](O[C@H]2[C@H](O)[C@@H](O[C@H]3O[C@H](CO)[C@@H](O)[C@H](N)[C@H]3O)[C@H](N)C[C@@H]2N)[C@H](O)[C@@H](O)[C@@H]1O [Kanamycin],MIC,[8],1 µg/mL
Nc1nc2c(ncn2[C@@H]2O[C@H](COP(=O)(O)OP(=O)(O)O)[C@@H](O)[C@H]2O)c(=O)[nH]1 [GDP],X-ray crystal structure,"[9]; nucleotide site, GDP + Pi, crystallized with 5 mM azithromycin and 5 mM GMPPCP",MphH (native) GDP + Pi complex (5UXC)
CC[C@H]1OC(=O)C[C@@H](O)[C@H](C)[C@@H](O[C@@H]2O[C@H](C)[C@@H](O[C@H]3C[C@@](C)(O)[C@@H](O)[C@H](C)O3)[C@H](N(C)C)[C@H]2O)[C@@H](CC=O)C[C@@H](C)C(=O)/C=C/C(C)=C/[C@@H]1CO[C@@H]1O[C@H](C)[C@@H](O)[C@@H](OC)[C@H]1OC [Tylosin],Ki,[6],350 ± 160 µM
same,MIC,[8],2 µg/mL
CC[C@H]1OC(=O)[C@H](C)[C@@H](O[C@H]2C[C@@](C)(OC)[C@@H](O)[C@H](C)O2)[C@H](C)[C@@H](O[C@@H]2O[C@H](C)C[C@H](N(C)C)[C@H]2O)[C@](C)(O)C[C@@H](C)C(=O)[C@H](C)[C@@H](O)[C@]1(C)O [erythromycin],MIC,[8],0.5 µg/mL
same,Km,[7]; 200 uM GTP,110 ± 10 µM
CC[C@H]1OC(=O)[C@H](C)[C@@H](O[C@H]2C[C@@](C)(OC)[C@@H](O)[C@H](C)O2)[C@H](C)[C@@H](O[C@@H]2O[C@H](C)C[C@H](N(C)C)[C@H]2O)[C@](C)(O)C[C@@H](C)CN(C)[C@H](C)[C@@H](O)[C@]1(C)O [azithromycin],MIC,[8],0.063 µg/mL
same,X-ray crystal structure,"[9]; macrolide-binding cleft, 5 mM azithromycin",MphH (Se-Met) azithromycin complex (5UXD)
same,Km,[7]; 200 uM GTP,56 ± 3 µM
MphB (Escherichia coli O83:H1 str. NRG 857C),Km,[10],8.3 ± 0.45 µM
same,kcat,[10],0.602 ± 0.008 s⁻¹
same,Km,[11],1.6 ± 0.2 µM
same,kcat,[11],0.0412 ± 0.0009 s⁻¹
same,Km,[12],6.6 ± 1.8 µM
same,kcat,[12],0.77 ± 0.04 s⁻¹
same,Km,[13],2.9 ± 0.36 µM
same,kcat,[13],0.189 ± 0.004 s⁻¹
